# Values of other authors as cited in article PMC9574052.
# Biological target: oxytocin receptor (Homo sapiens) (UniProt P30559)
# Sequence of UniProt P30559 (P30559 whole entry): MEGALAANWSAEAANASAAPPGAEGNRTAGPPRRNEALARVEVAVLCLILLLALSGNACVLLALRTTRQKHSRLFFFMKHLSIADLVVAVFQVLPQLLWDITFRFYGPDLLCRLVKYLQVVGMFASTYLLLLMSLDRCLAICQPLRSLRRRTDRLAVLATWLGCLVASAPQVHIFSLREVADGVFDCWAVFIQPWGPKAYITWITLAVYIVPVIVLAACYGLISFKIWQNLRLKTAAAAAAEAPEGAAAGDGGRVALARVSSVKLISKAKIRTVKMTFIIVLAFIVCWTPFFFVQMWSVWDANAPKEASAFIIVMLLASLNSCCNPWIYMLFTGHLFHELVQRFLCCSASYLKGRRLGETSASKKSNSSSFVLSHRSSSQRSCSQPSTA
# Sequence of oxytocin (P01178 whole entry, looked up): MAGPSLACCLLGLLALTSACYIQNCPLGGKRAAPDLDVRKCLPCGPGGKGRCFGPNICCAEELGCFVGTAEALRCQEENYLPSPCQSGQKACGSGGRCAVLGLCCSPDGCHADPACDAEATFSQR
substance,measurement,value
oxytocin (from UniProt P01178),Ki,0.79 nM
